Test results published in paper PMC6265470, “Structural, functional and biological insights into the role of Mycobacterium tuberculosis VapBC11 toxin–antitoxin system: targeting a tRNase to tackle mycobacterial adaptation” (Nucleic Acids Research, 2018).

Tests used:
[1] = molecular target: VapC11 as co-expressed and co-purified with VapB11 in the VapBC11 complex (Mycobacterium tuberculosis) (UniProt P9WFA4); assay: […] (pH 8.0), 150 mM NaCl, […]
[2] = tested on: VapC11 D5A (Mycobacterium tuberculosis); assay: BLI; conditions: BLI: 20 mM HEPES pH 7.5, 150 mM NaCl, 25 C

Row | Substance | percent of the population as heterooctamer [1] [%] | stoichiometry N (VapB11 per VapC11 (2:4)) [1] | stoichiometry N (VapB11 per VapC11 (4:4)) [1] | Kd [2] [nM]
1 | VapB11 (residues 6-72) as co-expressed and co-purified with VapC11 in the VapBC11 complex (from UniProt P9WLU2 6-72) (domain or fragment) | 80 | 0.5 | 1 | –
2 | tRNA-LeuCAG (leuT) | – | – | – | 0.5
